B1: recombinant rabbit LBP-2 clone 26 (6-His tag) (other)
chain: PPPPQQPQPPPEGGAARAGGPARPVSLREVVRYLGGSSGAGGRLTRGRVQGLLEEEAAARGRLERTRLGALALPRGDRPGRAPPAASARAARNKRAGEERVLEKEEEEEEEEDDEDDDDDVVSEGSEVPESDRPAGAQHHQLNGGERGPQTAKERAKEWSLCGPHPGQEEGRGPAAGSGTRQVFSMAALSKEGGSASSTTGPDSPSPVPLPPGKPALPGADGTPFGCPAGRKEKPADPVEWTVMDVVEYFTEAGFPEQATAFQEQEIDGKSLLLMQRTDVLTGLSIRLGPALKIYEHHIKVLQQGHFEDDDPEGFLG
modifications: 125I-iodinated (Iodobeads) where used as the radiolabeled species in ACE assays
notes: Clone 26 contains the acidic region, residues 338-365; also called LBP-2 (rabbit clone 26); clone 26 derived LBP-2; not shown: N-terminal 6-histidine tag from the pPROEX-HT vector
B2: recombinant rabbit LBP-3 (6-His tag) (other)
chain: MKNQDKKNGAAKQPNPKSSPGQPEAGAEGAQGRPGRPAPAREAEGASSQAPGRPEGAQAKTAQPGALCDVSEELSRQLEDILSTYCVDNNQGAPGEDGVQGEPPEPEDAEKSRAYVARNGEPEPGTPVVNGEKETSKAEPGTEEIRTSDEVGDRDHRRPQEKKKAKGLGKEITLLMQTLNTLSTPEEKLAALCKKYAELLEEHRNSQKQMKLLQKKQSQLVQEKDHLRGEHSKAILARSKLESLCRELQRHNRSLKEEGVQRAREEEEKRKEVTSHFQMTLNDIQLQMEQHNERNSKLRQENMELAERLKKLIEQYELREEHIDKVFKHKDLQQQLVDAKLQQAQEMLKEAEERHQREKDFLLKEAVESQRMCELMKQQETHLKQQLALYTEKFEEFQNTLSKSSEVFTTFKQEMEKMTKKIKKLEKETTMYRSRWESSNKALLEMAEEKTLRDKELEGLQVKIQRLEKLCRALQTERNDLNKRVQDLSAGGQGPVSDSGPERRPEPATTSKEQGVEGPGAQVPNSPRATDASCCAGAPSTEASGQTGPQEPTTATA
modifications: 125I-iodinated (Iodobeads) where used as the radiolabeled species in ACE assays
notes: also called LBP-3 (80 kDa fragment); rabbit recombinant LBP-3; not shown: N-terminal 6-histidine tag from the pPROEX-HT vector

Assays:
[1] = target: T1, native human low density lipoprotein (LDL) (human, UniProt P04114 28-4563); assay: affinity coelectrophoresis (ACE): 125I-LBP-2 run through LDL cast in agarose; binding curve
T1 construct: This is a lipoprotein particle (protein plus lipid), not an isolated polypeptide; also called native LDL; cold LDL
T1 sequence (P04114 28-4563): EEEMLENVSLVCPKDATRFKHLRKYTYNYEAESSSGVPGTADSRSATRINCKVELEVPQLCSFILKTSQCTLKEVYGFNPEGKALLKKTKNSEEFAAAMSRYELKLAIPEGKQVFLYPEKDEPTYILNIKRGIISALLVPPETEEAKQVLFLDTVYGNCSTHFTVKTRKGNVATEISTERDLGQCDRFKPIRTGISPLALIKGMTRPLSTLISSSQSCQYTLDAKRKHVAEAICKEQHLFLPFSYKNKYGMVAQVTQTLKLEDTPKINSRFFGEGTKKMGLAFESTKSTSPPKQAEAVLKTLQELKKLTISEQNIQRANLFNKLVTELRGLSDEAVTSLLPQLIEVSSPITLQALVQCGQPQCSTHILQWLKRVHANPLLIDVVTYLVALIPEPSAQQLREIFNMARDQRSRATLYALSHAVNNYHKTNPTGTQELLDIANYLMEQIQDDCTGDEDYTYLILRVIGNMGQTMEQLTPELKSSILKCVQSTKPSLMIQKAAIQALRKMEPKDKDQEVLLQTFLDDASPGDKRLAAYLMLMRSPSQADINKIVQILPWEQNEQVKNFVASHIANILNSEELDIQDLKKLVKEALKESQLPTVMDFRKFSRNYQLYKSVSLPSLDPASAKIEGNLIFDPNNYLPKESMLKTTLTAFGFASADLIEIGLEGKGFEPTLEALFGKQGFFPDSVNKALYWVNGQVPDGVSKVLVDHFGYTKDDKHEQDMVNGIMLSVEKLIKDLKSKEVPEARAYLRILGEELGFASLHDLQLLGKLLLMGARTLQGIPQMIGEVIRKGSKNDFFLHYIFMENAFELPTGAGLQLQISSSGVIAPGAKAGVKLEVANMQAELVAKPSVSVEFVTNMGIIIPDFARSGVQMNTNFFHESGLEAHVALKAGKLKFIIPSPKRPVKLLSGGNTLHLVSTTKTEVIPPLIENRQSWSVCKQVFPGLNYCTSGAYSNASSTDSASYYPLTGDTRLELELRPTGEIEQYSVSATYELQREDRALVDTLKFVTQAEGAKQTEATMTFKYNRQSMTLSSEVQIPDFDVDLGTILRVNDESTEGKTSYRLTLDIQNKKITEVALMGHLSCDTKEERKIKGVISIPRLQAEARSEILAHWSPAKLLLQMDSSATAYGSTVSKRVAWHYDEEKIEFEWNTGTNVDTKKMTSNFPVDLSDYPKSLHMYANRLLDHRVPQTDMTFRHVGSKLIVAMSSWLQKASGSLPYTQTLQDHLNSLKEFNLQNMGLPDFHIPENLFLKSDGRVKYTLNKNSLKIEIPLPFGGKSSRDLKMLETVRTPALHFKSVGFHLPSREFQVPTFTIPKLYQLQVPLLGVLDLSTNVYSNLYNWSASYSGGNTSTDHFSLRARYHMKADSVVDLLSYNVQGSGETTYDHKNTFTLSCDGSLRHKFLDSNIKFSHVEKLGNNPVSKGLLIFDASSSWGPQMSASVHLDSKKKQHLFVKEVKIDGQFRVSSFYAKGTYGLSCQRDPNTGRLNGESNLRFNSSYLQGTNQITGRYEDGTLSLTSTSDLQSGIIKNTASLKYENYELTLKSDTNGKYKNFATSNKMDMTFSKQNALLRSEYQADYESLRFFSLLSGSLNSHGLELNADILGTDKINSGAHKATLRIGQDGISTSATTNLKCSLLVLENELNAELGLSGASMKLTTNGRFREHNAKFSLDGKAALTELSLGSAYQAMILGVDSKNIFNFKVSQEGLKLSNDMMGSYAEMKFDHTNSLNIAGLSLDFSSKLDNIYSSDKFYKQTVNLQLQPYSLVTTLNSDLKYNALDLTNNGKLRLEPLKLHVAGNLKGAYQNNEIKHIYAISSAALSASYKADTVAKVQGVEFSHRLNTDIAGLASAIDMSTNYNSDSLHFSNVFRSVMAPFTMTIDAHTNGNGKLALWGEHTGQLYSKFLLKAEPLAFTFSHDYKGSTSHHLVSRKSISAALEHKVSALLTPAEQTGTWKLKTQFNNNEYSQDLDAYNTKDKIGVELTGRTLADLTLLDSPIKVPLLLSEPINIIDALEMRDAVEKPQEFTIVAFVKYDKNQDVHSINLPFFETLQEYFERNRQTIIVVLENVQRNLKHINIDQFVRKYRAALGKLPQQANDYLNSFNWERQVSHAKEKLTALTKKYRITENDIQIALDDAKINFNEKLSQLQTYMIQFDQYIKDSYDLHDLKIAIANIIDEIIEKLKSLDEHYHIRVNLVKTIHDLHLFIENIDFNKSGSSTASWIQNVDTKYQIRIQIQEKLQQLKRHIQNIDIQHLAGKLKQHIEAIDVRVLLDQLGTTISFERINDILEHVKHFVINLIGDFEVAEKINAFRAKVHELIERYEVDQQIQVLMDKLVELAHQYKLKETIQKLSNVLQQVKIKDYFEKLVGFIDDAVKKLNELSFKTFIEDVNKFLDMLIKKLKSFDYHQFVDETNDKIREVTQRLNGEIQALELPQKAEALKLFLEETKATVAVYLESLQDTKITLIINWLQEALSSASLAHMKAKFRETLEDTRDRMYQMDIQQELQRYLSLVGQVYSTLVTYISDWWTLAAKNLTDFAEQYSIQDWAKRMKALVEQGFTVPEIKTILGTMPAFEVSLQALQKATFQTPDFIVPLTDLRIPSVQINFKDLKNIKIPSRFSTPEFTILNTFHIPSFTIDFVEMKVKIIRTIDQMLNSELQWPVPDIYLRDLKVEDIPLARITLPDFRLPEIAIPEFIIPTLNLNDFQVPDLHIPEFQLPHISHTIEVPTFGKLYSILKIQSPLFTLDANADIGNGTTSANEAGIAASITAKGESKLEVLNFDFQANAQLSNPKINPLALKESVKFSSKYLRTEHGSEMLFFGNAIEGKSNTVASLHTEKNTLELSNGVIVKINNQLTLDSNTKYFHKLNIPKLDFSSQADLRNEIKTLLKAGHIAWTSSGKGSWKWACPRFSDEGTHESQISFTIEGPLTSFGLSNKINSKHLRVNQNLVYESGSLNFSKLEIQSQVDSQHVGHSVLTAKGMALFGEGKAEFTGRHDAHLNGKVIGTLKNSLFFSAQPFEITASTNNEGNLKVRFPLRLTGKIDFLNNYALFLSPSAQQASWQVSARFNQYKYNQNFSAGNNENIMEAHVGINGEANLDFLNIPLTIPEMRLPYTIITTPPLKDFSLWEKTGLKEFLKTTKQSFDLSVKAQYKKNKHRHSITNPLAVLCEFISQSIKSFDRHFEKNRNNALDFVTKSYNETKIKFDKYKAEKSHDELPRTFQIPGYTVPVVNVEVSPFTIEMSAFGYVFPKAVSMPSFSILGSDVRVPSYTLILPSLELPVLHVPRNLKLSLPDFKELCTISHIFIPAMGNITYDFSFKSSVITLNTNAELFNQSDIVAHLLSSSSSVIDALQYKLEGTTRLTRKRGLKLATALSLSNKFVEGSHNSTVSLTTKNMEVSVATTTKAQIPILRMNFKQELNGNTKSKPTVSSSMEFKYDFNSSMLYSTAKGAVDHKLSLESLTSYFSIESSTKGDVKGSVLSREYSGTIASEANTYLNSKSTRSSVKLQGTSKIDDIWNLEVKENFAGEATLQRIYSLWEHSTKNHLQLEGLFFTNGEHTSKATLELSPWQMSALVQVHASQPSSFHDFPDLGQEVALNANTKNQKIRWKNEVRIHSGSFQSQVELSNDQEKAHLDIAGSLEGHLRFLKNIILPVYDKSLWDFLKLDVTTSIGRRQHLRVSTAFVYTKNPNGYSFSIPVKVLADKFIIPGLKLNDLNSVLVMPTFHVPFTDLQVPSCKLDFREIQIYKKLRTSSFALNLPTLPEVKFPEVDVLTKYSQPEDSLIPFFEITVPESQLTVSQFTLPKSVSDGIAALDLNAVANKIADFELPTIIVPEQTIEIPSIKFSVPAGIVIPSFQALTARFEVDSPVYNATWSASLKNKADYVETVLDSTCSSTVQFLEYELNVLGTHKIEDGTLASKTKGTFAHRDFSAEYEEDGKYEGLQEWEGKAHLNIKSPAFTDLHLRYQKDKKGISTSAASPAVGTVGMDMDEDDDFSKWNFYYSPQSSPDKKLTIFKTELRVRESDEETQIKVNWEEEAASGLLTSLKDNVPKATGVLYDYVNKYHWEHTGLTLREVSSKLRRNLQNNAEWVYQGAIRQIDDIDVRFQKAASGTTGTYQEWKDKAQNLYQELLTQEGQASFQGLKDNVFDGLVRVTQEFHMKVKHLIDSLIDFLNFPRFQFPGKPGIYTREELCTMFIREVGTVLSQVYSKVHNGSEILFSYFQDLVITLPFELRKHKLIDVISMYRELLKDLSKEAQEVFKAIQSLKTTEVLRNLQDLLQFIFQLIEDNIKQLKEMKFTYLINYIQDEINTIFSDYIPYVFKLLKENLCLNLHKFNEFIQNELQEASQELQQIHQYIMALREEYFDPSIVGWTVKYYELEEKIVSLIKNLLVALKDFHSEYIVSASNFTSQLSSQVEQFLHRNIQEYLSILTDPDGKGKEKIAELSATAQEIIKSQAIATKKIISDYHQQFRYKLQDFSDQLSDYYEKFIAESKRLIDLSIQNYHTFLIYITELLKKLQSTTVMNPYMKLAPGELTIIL
Procedure: (§1) Analysis of the affinity and specificity of recombinant rabbit LBP-1, LBP-2 or LBP-3 binding to LDL was carried out using the principle of affinity electrophoresis (Lee and Lander, Proc. Natl. Acad. Sci. USA 88:2768-2772 (1991)). Melted agarose (1%; 65° C.) was prepared in 50 mM sodium MOPS, pH 7.0; 125 mM sodium acetate, 0.5% CHAPS. A teflon comb consisting of nine parallel bars (45×4×4 mm/3 mm spacing between bars) was placed onto GelBond film (FMC Bioproducts, Rockland, Me.) fitted to a plexiglass casting tray with the long axis of the bars parallel to the long axis of the casting tray. A teflon strip (66×1×1 mm) was placed on edge with the long axis parallel to the short axis of the casting tray, at a distance of 4 mm from the edge of the teflon comb. Melted agarose (>65° C.) was then poured to achieve a height of approximately 4 mm. […] LDL or HDL samples were prepared in gel buffer (50 mM sodium MOPS, pH 7.0, 125 mM sodium acetate) at twice the desired concentration. Samples were then mixed with an equal volume of melted agarose (in 50 mM MOPS, pH 7.0; 125 mM sodium acetate; 50° C.), pipetted into the appropriate rectangular wells and allowed to gel. The binding affinity and specificity of LBP-1 and LBP-3 was tested using several concentrations of LDL (540 to 14 nM) and HDL (2840177 nM). […]

[2] = target: T1, native human low density lipoprotein …; assay: affinity coelectrophoresis (ACE): 125I-LBP-3 run through LDL cast in agarose; binding curve
Procedure: as §1

Binder | Kd [1] [nM] | Kd [2] [nM]
B1 | 100 | 
B2 |  | 333

Source: US20020152485A1 (BOSTON HEART FOUNDATION, published 2002)
